Measurements reported in patent US20240270846A1 (published 2024).
Positions count from the first letter of the chain named.

B1: CE115HA000 H chain altered form R16Q (antibody, human IgG1, kappa, L234A L235A, N297A, name in Kabat numbering)
heavy: QVQLVESGGGVVQPGQSLRLSCAASGFTFSNAWMHWVRQAPGKGLEWVAQIKAKSNNYATYYAESVKGRFTISRDDSKNSLYLQMNSLKTEDTAVYYCRYVHYGAYYGVDAWGQGTTVTVSSASTKGPSVFPLAPSSKSTSGGTAALGCLVKDYFPEPVTVSWNSGALTSGVHTFPAVLQSSGLYSLSSVVTVPSSSLGTQTYICNVNHKPSNTKVDKKVEPKSCDKTHTCPPCPAPEAAGGPSVFLFPPKPKDTLMISRTPEVTCVVVDVSHEDPEVKFNWYVDGVEVHNAKTKPREEQYASTYRVVSVLTVLHQDWLNGKEYKCKVSNKALPAPIEKTISKAKGQPREPQVYTLPPSRCELTKNQVSLSCAVKGFYPSDIAVEWESNGQPENNYKTTPPVLDSDGSFFLVSKLTVDKSRWQQGNVFSCSVMHEALHNHYTQKSLSLSPDYKDDDDK
chain: EPKSSDKTHTCPPCPAPELLGGPSVFLFPPKPKDTLMISRTPEVTCVVVDVSHEDPEVKFNWYVDGVEVHNAKTKPREEQYNSTYRVVSVLTVLHQDWLNGKEYKCKVSNKALPAPIEKTISKAKGQPREPQVCTLPPSRDELTKNQVSLWCLVKGFYPSDIAVEWESNGQPENNYKTTPPVLDSDGSFFLYSKLTVDKSRWQQGNVFSCSVMHEALHNRYTQKSLSLSP
light: DIVMTQSPLSLPVTPGEPASISCRSSQSLVHSNRNTYLHWYQQKPGQAPRLLIYKVSNRFSGVPDRFSGSGSGTDFTLKISRVEAEDVGVYYCGQGTQVPYTFGQGTKLEIKRTVAAPSVFIFPPSDEQLKSGTASVVCLLNNFYPREAKVQWKVDNALQSGNSQESVTEQDSKDSTYSLSSTLTLSKADYEKHKVYACEVTHQGLSSPVTKSFNRGEC
notes: one-arm antibody
B2: CE115HA000 H chain altered form R19T (antibody, human IgG1, kappa, L234A L235A, N297A, name in Kabat numbering)
heavy: B1 heavy with Q16R, R19T
chain: B1 chain
light: B1 light
notes: one-arm antibody
B3: CE115HA000 H chain altered form S52cY (antibody, human IgG1, kappa, L234A L235A, N297A, name in Kabat numbering)
heavy: B1 heavy with Q16R, S55Y
chain: B1 chain
light: B1 light
notes: one-arm antibody
B4: CE115HA000 H chain altered form S52cF (antibody, human IgG1, kappa, L234A L235A, N297A, name in Kabat numbering)
heavy: B1 heavy with Q16R, S55F
chain: B1 chain
light: B1 light
notes: one-arm antibody
B5: CE115HA000 H chain altered form T57K (antibody, human IgG1, kappa, L234A L235A, N297A, name in Kabat numbering)
heavy: B1 heavy with Q16R, T60K
chain: B1 chain
light: B1 light
notes: one-arm antibody
B6: CE115HA000 H chain altered form S52cL (antibody, human IgG1, kappa, L234A L235A, N297A, name in Kabat numbering)
heavy: B1 heavy with Q16R, S55L
chain: B1 chain
light: B1 light
notes: one-arm antibody
B7: CE115HA000 H chain altered form T57N (antibody, human IgG1, kappa, L234A L235A, N297A, name in Kabat numbering)
heavy: B1 heavy with Q16R, T60N
chain: B1 chain
light: B1 light
notes: one-arm antibody
B8: CE115HA000 H chain altered form S30D (antibody, human IgG1, kappa, L234A L235A, N297A, name in Kabat numbering)
heavy: B1 heavy with Q16R, S30D
chain: B1 chain
light: B1 light
notes: one-arm antibody
B9: CE115HA000 H chain altered form S52cD (antibody, human IgG1, kappa, L234A L235A, N297A, name in Kabat numbering)
heavy: B1 heavy with Q16R, S55D
chain: B1 chain
light: B1 light
notes: one-arm antibody
B10: CE115HA000 H chain altered form T28S (antibody, human IgG1, kappa, L234A L235A, N297A, name in Kabat numbering)
heavy: B1 heavy with Q16R, T28S
chain: B1 chain
light: B1 light
notes: one-arm antibody
B11: CE115HA000 H chain altered form W33D (antibody, human IgG1, kappa, L234A L235A, N297A, name in Kabat numbering)
heavy: B1 heavy with Q16R, W33D
chain: B1 chain
light: B1 light
notes: one-arm antibody
B12: CE115HA000 H chain altered form T57A (antibody, human IgG1, kappa, L234A L235A, N297A, name in Kabat numbering)
heavy: B1 heavy with Q16R, T60A
chain: B1 chain
light: B1 light
notes: one-arm antibody
B13: CE115HA000 H chain altered form T57I (antibody, human IgG1, kappa, L234A L235A, N297A, name in Kabat numbering)
heavy: B1 heavy with Q16R, T60I
chain: B1 chain
light: B1 light
notes: one-arm antibody
B14: CE115HA000 H chain altered form S52cG (antibody, human IgG1, kappa, L234A L235A, N297A, name in Kabat numbering)
heavy: B1 heavy with Q16R, S55G
chain: B1 chain
light: B1 light
notes: one-arm antibody
B15: CE115HA000 H chain altered form S52cK (antibody, human IgG1, kappa, L234A L235A, N297A, name in Kabat numbering)
heavy: B1 heavy with Q16R, S55K
chain: B1 chain
light: B1 light
notes: one-arm antibody
B16: CE115HA000 H chain altered form S30G (antibody, human IgG1, kappa, L234A L235A, N297A, name in Kabat numbering)
heavy: B1 heavy with Q16R, S30G
chain: B1 chain
light: B1 light
notes: one-arm antibody
B17: CE115HA000 H chain altered form W33F (antibody, human IgG1, kappa, L234A L235A, N297A, name in Kabat numbering)
heavy: B1 heavy with Q16R, W33F
chain: B1 chain
light: B1 light
notes: one-arm antibody
B18: CE115HA000 H chain altered form S52cV (antibody, human IgG1, kappa, L234A L235A, N297A, name in Kabat numbering)
heavy: B1 heavy with Q16R, S55V
chain: B1 chain
light: B1 light
notes: one-arm antibody
B19: CE115HA000 H chain altered form W33A (antibody, human IgG1, kappa, L234A L235A, N297A, name in Kabat numbering)
heavy: B1 heavy with Q16R, W33A
chain: B1 chain
light: B1 light
notes: one-arm antibody
B20: CE115HA000 H chain altered form S52cQ (antibody, human IgG1, kappa, L234A L235A, N297A, name in Kabat numbering)
heavy: B1 heavy with Q16R, S55Q
chain: B1 chain
light: B1 light
notes: one-arm antibody
B21: CE115HA000 H chain altered form V11L (antibody, human IgG1, kappa, L234A L235A, N297A, name in Kabat numbering)
heavy: B1 heavy with V11L, Q16R
chain: B1 chain
light: B1 light
notes: one-arm antibody
B22: CE115HA000 H chain altered form T28D (antibody, human IgG1, kappa, L234A L235A, N297A, name in Kabat numbering)
heavy: B1 heavy with Q16R, T28D
chain: B1 chain
light: B1 light
notes: one-arm antibody
B23: CE115HA000 H chain altered form S52cA (antibody, human IgG1, kappa, L234A L235A, N297A, name in Kabat numbering)
heavy: B1 heavy with Q16R, S55A
chain: B1 chain
light: B1 light
notes: one-arm antibody

Biological target: T1, CD3 epsilon homodimer protein (UniProt P07766 23-126)
T1 construct: also called CD3 (CD3 epsilon)
T1 sequence (P07766 23-126): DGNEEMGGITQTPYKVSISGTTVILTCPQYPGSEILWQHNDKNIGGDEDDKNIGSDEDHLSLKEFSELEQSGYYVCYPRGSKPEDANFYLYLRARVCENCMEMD
Assay: SPR Biacore T200, CD3 epsilon homodimer on chip, antibody as analyte;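 note: homodimer amine-coupled to a CM4 sensor chip, run at 25 °C in HBS-EP+ buffer, with kinetic parameters derived in Biacore T200 Evaluation Software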
Experimental: An appropriate amount of CD3 epsilon homodimer protein was immobilized onto Sensor chip CM4 (GE Healthcare Japan Corp.) by the amine coupling method. Then, the antibody having an appropriate concentration was injected thereto as an analyte and allowed to interact with the CD3 epsilon homodimer protein on the sensor chip. Then, the sensor chip was regenerated by the injection of 10 mmol/L glycine-HCl (pH 1.5). The assay was conducted at 25 degrees C., and HBS-EP+(GE Healthcare Japan Corp.) was used as a running buffer. […] Each parameter was calculated using Biacore T200 Evaluation Software (GE Healthcare Japan Corp.).
Specifically, when the amount of the antibody comprising CE115HA000 bound was defined as X and the amount of the H chain one-amino acid altered form bound was defined as Y, a value of Z (ratio of amounts bound)=Y/X was used.

Row | KD ratio (KD of CE115HA000 / KD of altered form) | Binder
1 | 0.87 | B1
2 | 0.81 | B2
3 | 0.87 | B3
4 | 0.93 | B4
5 | 1.22 | B5
6 | 0.94 | B6
7 | 0.9 | B7
8 | 0.79 | B8
9 | 0.55 | B9
10 | 0.79 | B10
11 | 1690 | B11
12 | 0.87 | B12
13 | 0.81 | B13
14 | 0.81 | B14
15 | 0.88 | B15
16 | 0.93 | B16
17 | 0.66 | B17
18 | 0.82 | B18
19 | 30 | B19
20 | 0.97 | B20
21 | 0.83 | B21
22 | 0.93 | B22
23 | 0.67 | B23
